This data set deals with TDP-43 RRM1-2 WT (UniProt Q13148 102-269). The experiment in a line: BLI; EMSA: 5 ug total lysate in RIPA with RNase inhibitor, 2 ug tRNA, 1 uM unlabelled (GU)x6 and 2.5 nM biotin-(GU)x6, 30 min room temperature, 6% native PAGE; BLI buffer not given in the material (protein purified in phosphate buffer pH 7.2). The following applies: protein: recombinant; tags: 6xHis-SUMO removed by TEV.
Chain of TDP-43 RRM1-2 WT (Q13148 102-269): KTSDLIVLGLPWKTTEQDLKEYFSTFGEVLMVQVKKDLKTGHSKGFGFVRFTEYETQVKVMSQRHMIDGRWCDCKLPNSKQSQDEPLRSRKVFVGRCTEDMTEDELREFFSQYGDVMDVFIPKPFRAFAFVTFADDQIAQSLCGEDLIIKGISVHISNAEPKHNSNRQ

Regarding GUGUGAAUGAAU (ssRNA) [AUG-RNA], the Kd was found to be 3.2 ± 0.9 nM.

Source of the values: article PMC6885686, “RRM adjacent TARDBP mutations disrupt RNA binding and enhance TDP-43 proteinopathy”.
